Assay results taken from patent US5648233A, “Modified tumor cytotoxic factor (TCF) and DNA encoding such” (Snow Brand Milk Products Co., Ltd., priority 1992, dated 1997).
Several values for one entry are separate records, joined by “and”; a condition that tells them apart may be missing. Identical values can stand only once. Like-named read-outs stand apart in the source and are kept apart here.

Columns and labels:
Meth A sarcoma = assay: Tumor cytotoxic activity (MTT); type: cell-based; conditions: Meth A cells, 5 days, serial dilution from 50 ng/mL, FIG. 9
Experimental: Tumor cytotoxic activities of TCF, TCF-3 and TCF-13 were measured. Meth A sarcoma was used as a target cell line. The cells were suspended in RPMI medium (GIBCO Co.) supplemented with 10% FCS at a final cell density of 2×10^4 cells per mL. Fifty microliters of the cell suspension was inoculated into each well in 96-well flat-bottomed microtiter plates. The purified TCF, TCF-3 and TCF-13 were serially diluted with RPMI medium from the concentration of 50 ng/mL, and the 50 μL of each diluted sample was added to each test well. After incubation at 37° C. for 5 days, MTT was added at a final concentration of 0.5 mg/ml and the plates were incubated at 37° C. Four hours later, 100 μL of the solution containing 10% SDS and […] was added to each well and left overnight at room temperature. Next day, the absorbance at 620 nm was measured as a parameter of the viable cell numbers in each well.

[1] = rat
Experimental: Anti-TCF polyclonal antibody was dissolved in 0.1M NaHCO3 solution to a final concentration of 10 μg/mL. One hundred microliters of the antibody solution was added to each well and the plates were left overnight at room temperature. The wells were filled with 50% solution of Block Ace in H2 O, incubated for 1 hour at room temperature and washed three times with washing solution (PBS containing 0.1% Tween 20 ). Plasma samples periodically collected from the rats which were intravenously injected with TCF or the modified TCFs were diluted with normal rat serum, when necessary. TCF solutions serially diluted with normal rat serum (from 10 ng/mL) was used as the standard TCF solution. Fifty microliters of the sample solution and 50 μL of the first buffer (0.2M Tris HCl pH 7.3 containing 50% Block Ace, 0.2M NaCl, 0.1% Tween 20, 0.2% CHAPS, 20 mM Benzamidine hydrochloride, and 10 mM EDTA) was mixed and added to each well. The plates were left for 3 hours at 37° C. and washed three times with the washing buffer. One hundred microliters of the peroxidase-labeled anti-TCF antibody solution, which was 400-fold diluted with 0.1M phosphate buffer pH 7.0 containing 10% Block Ace, 0.15M NaCl, 0.1% Tween 20, 4% rat serum and 0.5% mouse IgG, was added to each well. Plates were incubated for hours at 37° C. and washed three times with the washing buffer. Subsequently, 100 μL of substrate solution (0.4 mg/mL of o-phenylene diamine dihydrochloride and 0.006% H2 O2 in 0.1M citrate-phosphate buffer, pH 4.5) was added to each well and incubated at 37° C. for 30 minutes in a dark place. The enzyme reaction was stopped by addition of 50 μL of 6N H2 SO4. The absorbance at 492 nm was measured on an immuno reader (Corona Co.). Thus concentrations of the TCF or the modified TCFs in rat serum were determined.
Time course of plasma levels were examined by EIA in rats after the single intravenous injection of TCF and the modified TCFs. Hale Wister rats weighing about 200 g were used.

normal cells = conditions: background statement; cited from earlier work
[2] = background statement; cited from earlier work
tumor cells = conditions: background statement; cited from earlier work
[3] = single i.v. injection, 50 μg/kg, two-compartment model, Mean ± SD, *P < 0.05, **P < 0.01 vs wild-type TCF

Substance: TCF-3: modified TCF which lacks oligosaccharide chain 3 (Ser at 563rd replaced with Ala)
- tumor cytotoxic activity (in words) (Meth A sarcoma): cytotoxic activities to Meth A cells in a dose-dependent manner
- bioavailabilities (in words) ([1]; in vivo): larger bioavailabilities
- AUC (in words) ([1]; in vivo, iv): larger AUC
- CLtotal (total clearance) ([1]; in vivo, iv): 18.8 ± 2.1 mL/min/kg
- metabolic fates (in words) ([1]; in vivo, iv): slower metabolic fates
- plasma half-lives (in words) ([1]; in vivo, iv): prolonged
- t1/2 α (plasma half-life of rapid phase) ([1]; in vivo, iv): 2.9 ± 0.3 min
- t1/2 β (plasma half-life of slower phase) ([1]; in vivo, iv): 54.2 ± 8.3 min
- total clearance (in words) ([1]; in vivo, iv): decreased

Substance: TCF: tumor cytotoxic factor derived from human fibroblast; wild-type glycoprotein with four N-linked oligosaccharide chains
- tumor cytotoxic activity (in words) (Meth A sarcoma): cytotoxic activities to Meth A cells in a dose-dependent manner
- growth stimulating activity for normal cells (in words) (normal cells): growth stimulating activity for normal cells
- half-life [2]: approximately 2 minutes
- t1/2 α (plasma half-life of rapid phase) [1, 3]: 2.4 ± 2.5 min and 2.4 ± 0.5 min
- t1/2 β (plasma half-life of slower phase) [1, 3]: 15.6 ± 4.6 min
- CLtotal (total clearance) ([1]; single i.v. injection, 50 μg/kg, Mean ± SD, **P < 0.01 vs wild-type TCF): 51.5 ± 13.9 mL/min/kg
- cytotoxic activity against tumor cells (in words) (tumor cells): strong cytotoxic activity against tumor cells
